assay: yeast display, Sf9 membrane polyspecificity reagent, FACS + sequencing; frameworks hold sequencing errors
Summary of the method: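 Nanobodies from a synthetic yeast display library (Saccharomyces cerevisiae BJ5465), induced 36–48 hours with galactose, were stained 1 hour at 4 °C with 10% biotinylated, detergent-solubilized Sf9 membrane reagent, enriched on streptavidin microbeads, then FACS-sorted. Anti-HA (expression) and streptavidin (reagent binding) fluorescence set low and high (top ~1%) gates. Polyreactivity labels come from the gate of origin. Genes were colony-PCR amplified, MiSeq 2 × 250 sequenced and filtered by CDR length.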

Row | Sequence | polyreactivity (PSR sort gate)
1 | QVQLVESGGGLVQAGGSLRLSCAASGNTLLSYAMGWYRQAPGKEWELVAAISIDGSTIYADSVKGRFTISRDNAKNTVYLQMNSLKPEDTAVYYCNADRTPFAEMDYWGQGTQVTVSS | low polyreactivity
2 | QVQLVESGGGLVQAGGSLRLSCAASGFIFTDYAMGWYRQAPGKEREFVAAIDWSGGNTYYADSVKGRFTISRDHAKNTVYLQMNRLKPEDTAVYYCNAGDYFVRFVYYWDDERYDYWGQGTQVTVSS | low polyreactivity
3 | QVQLVESGGGLVQAGGSLRLSCAASGLTFKYYAMGWYRQAPGKERELVAAITSTGGRTYYADSVKGRFTISRDNAKNTVYLQMNSLKPEDTAVYYCAAYYVGSSKYDSWGQGTQVTVSS | low polyreactivity
4 | QVQLVESGGGLFQAGGSLRLSCAASGSTFIYYVMGWYRQAAGKVWELVAAISTSGGRTYYADSVKGRYTISRDNAMNTVSLLMNSLKPVVTAVYYCAAVARTNGSIKFESWGQGTQVTVSS | high polyreactivity
5 | QVQLVESGGGLVQAGGSLRVSCAASGSTFCSNAKGWYRQAPGKERELVAAISSGGSTNYADSVKGRFTISRDNAKNTVYLQMYSLKPEDTAVYYCAADRSPEYYWGQGTQVTVSS | low polyreactivity
6 | QDQLVESWGGLVQAGGSLRLSCASSGITVYGYTMGWYRQAPGKERELVAGISRGGSTYYADSVKGRFTISRDNAKNTVYLQINSLKPEDTAVYYCAVESFYRHASLYDYWGQGTQVTVSS | high polyreactivity
7 | QVQLVESGGGLVQAGGSLRLSCAASGSTFKRNAMGWYRPAPGKERELVAAITFSGATTYYADSVKGRFTISRDNAKNTVYLQMNSLKPEDTAVYYCATKAYTTGRYYWGQGTQVTVSS | high polyreactivity
8 | QVQLVESGGGLVQAGGSLRLSCAASGNIFITNAMGWYRQAPGKERELVADISFSGGSTNYADSVKGRFTISRDNAKNTVYLQMNSLKPEDTAVYYCAARALASVSAHKYDNWGQGTQVTVST | low polyreactivity
9 | QVQLVESGGGLVQAGGSLRLSCAASGRIFDYYAMGWYRQAPGKERELVAAISLIGASTYYADSVKGRFTISRDNAKNTVYLQMNSLKPEDTAVYYCAAEFYLRRFKVTKRYWFDYWGQGTQVTVSS | low polyreactivity
10 | QVQLVESGGGLVQAGGSLRLSCAASGFTFQYYAMGWYRQAPGKERELVAAISWSGDSTYYADSVKGRFTISRDNAKNTVYLQMNSLKPEDTAVYYCAVYYTRGYDYWGQGTQVTVSS | high polyreactivity
11 | QVQLQESGGGLVLAGGSLRLSCADSGYISWSFTMVWYRKAPGKEREFVAGITYGGITYYADSVKGRFTISRDNAKNTVYLQMNSLKPEDTAVYYCAAPQTYPYVYVYWGQGTQLTVSS | high polyreactivity
12 | QVQLVESGGGLVQAGGSLRLSSAASGSISDSYAMGWYRQAPGKERELVAAITSGDSTYYADSVKGRFTISRDNAKNTVYLQMNSLKPEDTAVYFCAKRVSRVRGYVFTDWSEYDYWGQGTQVTVSS | low polyreactivity
13 | QVQLVESGGGLVQAGGSLRLSCAASGSTFLTNVMGWYRQAPGKEREFVAAITANGGRTYYADSVKGRFTISRDNAKKTVYLKMNSQKPEDTAVYYAVETAWSYNSIYWFDYWGQGTQVTVSS | high polyreactivity
14 | QGQLVESGGGLVQAGGSLRLSCAASAFIFDDNTMGWYRQAPGKERELGAAISYSAGSTYYADSVKGRFTISRDNAKNTVYLQMNSLKPEDTAVYSCAAQHYWVTSYLSSYDYWGQGTQVTLSS | low polyreactivity
15 | QVQLVESGGGLVQAGGSLRLSCAASGRTFTYYAMGWYRQATGKERELVAAISRGGGSTHYADSVKGRFTISRDNAKNTVYFQMNSLKPEDTAVYYCAARYSTRYKYDYWGQGTQVTVSS | high polyreactivity
16 | QVQLVESGGGLVQAGGSLRLSCAASGRTFYSYAMGWYRQAPGKEREFVAAINWSGTSTYADSVKGRFTISRDNAKNTVYLQMNSLKPEDTAVSYCAKTYRTLVRYWGQPFGYWGQGTQVTVSS | high polyreactivity
17 | QVQLVESGGCLVQAGGSLRLSCAACGITFSGYDMGWYRQAPGKERELVADITISTGSTYYADSVKGRFTISRDNAKNTVYLQMNSLKPEDTAVYYCAASPFDYWYDYYGLYKEYYYWRQGTQVTVSS | low polyreactivity
18 | QVQLVESGGGLVQAGGSLRLSCAASGSTFNSYVMGWYRQAPGQERELVAAITWSGGRTYYADSVKGRFTISRDNAKNTVYLQMNSLKPEDTAVYYCARKKRRGRDWGYDYWGQGTQVTVSS | high polyreactivity
19 | QVQLVESGGGLVQAGGSLRLSCAASGFTFTRYGMGWYRQSPGKERELVAGISSGGSTNYADSVKGRFTISRDNSKNTVYLQMNSLKPEDTAVYYCAAGFYSHGIELGYWGQGTQVTVSS | high polyreactivity
20 | QVQLVESGGGLVQAGGSLRLSCAASGSTLVIYAMGWYRQAPGKERELVAAINFSDGSTSYADSVKGRFSISRDNAKNTVYLQMNRLKPEDTAVYYLGQGTQVTVSS | low polyreactivity
21 | QVQLVESGGGLVQAAGSLRLSCAASGFIFIYNAMGWYRQAPGKERELVAAITGSDGGTFYADSVKGRFTFSRDYAKNTVYLQINSLKPEDTAVYYCHADNGSRQSRDGYESWGQGTQVTVSS | low polyreactivity
22 | QVQLVESGGGLVQAGGSLRLSCAASGLIFSYYAMGWYRQAPGKERELVAAITGSGGTTYYADSVKGRFTISRDNAKNTVYLQMNSLKPEDTAVYYCATPPPEVWQRWYREYDYWGQGTQVTVSS | low polyreactivity
23 | QVQLVDSGGGLVQAGGSLRLSCAASGRIFPYYDMGWYRQAPGKERELVAAITWNGGSTYYADSVKGRFTISRDNAKNTVYLQMNSLKPEDTAVYYWAVEPYYYGEDYWGQGTQVTVSS | low polyreactivity
24 | QVQLVESGGGIVQAGGSLRLSCAASAIIFLDNPMGWSRQAPGKERELVADITSSGGSTYYADSVKGRFTISRDNAKNTVSLQMNSLKPEDTAVYYCAKYVYGKFDGVRFSYDYWGQGTQVTVSS | low polyreactivity
25 | QVQLVESGGGLVQAGGSLRLSCAASGNTFNLYAMGWYRQAPGKERELVASMTSGGGTNYADSVKGRFTISRDNAKNTVYLQMNSLKPEDTAFFYCAATDWFSEYYWGQGTQVTVSS | low polyreactivity
26 | QVQLVESGGGLVQAGGSLRLSCAASGFTFSVNAMVWYRQAPGKERELVAAISSRGSITYYADSVKGRFTISRDNAKNTVYLQMNSLKPEDTAVYYCAAKPLTGSSWEDYYWGQGTQVTVSS | high polyreactivity
27 | QVHLGESGARIDQAGGSLRLSCAASGRIFKYNAMGLYRQAPGKEREWVAAISSGGSTNYADTEKGRFTISRDNAKNTVYLQMNSLKPEDTAVYYCAADGTRVSSFHYLVWLGYWGQGTQVNVSS | low polyreactivity
28 | QVQLVESGGGLVQTGGSLRLSCAASGRIFNGNAMGWYRQAPGKERELVAAITKSGGNTYYADSVKGRFTISRDNAKNTVYLEMNSLKQEDTAVYYCNAYYSLGAWKGAYDYWGQGTQVTVSS | low polyreactivity
29 | QVQLVESVGGLVQAGGSLRLSCAASGNTFYVNVMGWYRQAPGKEREFVAAITWIGGSTYYADSVKGRFTISRDNAKNTVYLQMNSLKPEDTAVYYCAADVYNRWWWRAYDYWGQGTQVTVSS | high polyreactivity
30 | QVQLVESRGGLVQAGGSLRLSCAASGFTFSGNARGWYRQAPGKERECVAAISNRSGRTYYADSVKGRFTISRYNAKNTVYLQMNSLKPEDTAVYYCAAESIYTWGIRGDYWGHGTQVTVSS | high polyreactivity

Reference: the nanobody polyreactivity screen of Harvey et al. (2022)
